Results as given in PMC8716364, “A Redox-Sensitive Cysteine Is Required for PIN1At Function” (Frontiers in Plant Science, 2021).

Experiments:
[1] = target: Cys69 (UniProt position 69, TRVSDCSSAKR); experiment: chemical modification; settings: 25 °C; sodium citrate or phosphate buffer (concentration not stated); reduced (DTT-treated and desalted), free enzyme, monomer
[2] = target: the molecule itself; experiment: SEC-MALS; 76 μM (300 μg) reduced PIN1At incubated 30 min with 100 μM to 2.5 mM H2O2, 30 mM Tris-HCl pH 8.0, 200 mM NaCl, Superdex200 10/300; disulfide-bridged dimer
[3] = target: the molecule itself; experiment: non-reducing SDS-PAGE after alkylation with mPEG-maleimide; 20 μM reduced PIN1At with 25- or 100-fold excess H2O2 (500 μM or 2 mM), 30 min, TE buffer; one sample then 10 mM DTT 30 min; free thiols alkylated with 2 kDa mPEG-maleimide, non-reducing 15% SDS-PAGE

Q: For “PIN1At (PAR1), peptidyl-prolyl cis-trans isomerase Pin1, single-domain parvulin (Arabidopsis thaliana)”, which pKa [1] is on record?
A: Its pKa is 4.9±0.1.

B1: Arabidopsis PIN1At, untagged recombinant protein (enzyme, Arabidopsis thaliana, UniProt Q9SL42 2-119, looked up)
chain: ASRDQVKASHILIKHQGSRRKASWKDPEGKIILTTTREAAVEQLKSIREDIVSGKANFEEVATRVSDCSSAKRGGDLGSFGRGQMQKPFEEATYALKVGDISDIVDTDSGVHIIKRTA
notes: Single cysteine, Cys69; the printed masses (12.3 kDa, 12,882.7 Da; theoretical 13,014.7 Da) fit the untagged protein; also called PAR1; PIN1At/PAR1; source: E. coli BL21 (DE3) with pSBET, pET12a, purified (ammonium sulfate, ACA44 gel filtration, DEAE-Sephacel)
Q: For B1, which “stoichiometry N” value [2] is on record?
A: The value was 2.

B2: Arabidopsis PIN1At, N-terminal His-tagged recombinant protein (enzyme, Arabidopsis thaliana, UniProt Q9SL42 1-119, looked up)
chain: MASRDQVKASHILIKHQGSRRKASWKDPEGKIILTTTREAAVEQLKSIREDIVSGKANFEEVATRVSDCSSAKRGGDLGSFGRGQMQKPFEEATYALKVGDISDIVDTDSGVHIIKRTA
notes: also called His-tagged PIN1At; not shown: His6, N-terminal, kept
Q: Does B2 bind [3]?
A: Result: binds
